# Measurements from US20190071514A1, “ANTI-CD39 ANTIBODIES” (INNATE PHARMA, priority 2016, published 2019).
# Numbering of substitutions follows the chain as printed. Names and notes keep the numbering of the source.
# T1: human CD39 endogenously expressed on Ramos human lymphoma cells (human, UniProt P49961 1-510)
# T1 sequence: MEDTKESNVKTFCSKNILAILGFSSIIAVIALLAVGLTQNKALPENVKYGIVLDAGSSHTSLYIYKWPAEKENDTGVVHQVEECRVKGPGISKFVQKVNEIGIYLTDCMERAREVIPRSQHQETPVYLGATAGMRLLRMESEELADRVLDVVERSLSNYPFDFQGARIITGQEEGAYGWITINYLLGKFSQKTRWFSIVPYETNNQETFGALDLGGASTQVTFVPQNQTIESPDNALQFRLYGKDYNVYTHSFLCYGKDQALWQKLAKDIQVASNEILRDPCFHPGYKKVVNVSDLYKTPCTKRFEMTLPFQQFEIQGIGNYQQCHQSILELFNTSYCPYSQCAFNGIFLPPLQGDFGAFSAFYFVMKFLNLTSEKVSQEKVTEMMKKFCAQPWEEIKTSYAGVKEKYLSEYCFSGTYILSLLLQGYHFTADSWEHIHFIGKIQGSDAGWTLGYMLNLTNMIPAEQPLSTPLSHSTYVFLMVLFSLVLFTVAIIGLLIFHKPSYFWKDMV
# T2: Human CD39-L4 (human, UniProt O75356 25-428)
# T2 construct: Recombinant protein coated on ELISA plates; also called NTPDase5; ENTPD5
# T2 sequence: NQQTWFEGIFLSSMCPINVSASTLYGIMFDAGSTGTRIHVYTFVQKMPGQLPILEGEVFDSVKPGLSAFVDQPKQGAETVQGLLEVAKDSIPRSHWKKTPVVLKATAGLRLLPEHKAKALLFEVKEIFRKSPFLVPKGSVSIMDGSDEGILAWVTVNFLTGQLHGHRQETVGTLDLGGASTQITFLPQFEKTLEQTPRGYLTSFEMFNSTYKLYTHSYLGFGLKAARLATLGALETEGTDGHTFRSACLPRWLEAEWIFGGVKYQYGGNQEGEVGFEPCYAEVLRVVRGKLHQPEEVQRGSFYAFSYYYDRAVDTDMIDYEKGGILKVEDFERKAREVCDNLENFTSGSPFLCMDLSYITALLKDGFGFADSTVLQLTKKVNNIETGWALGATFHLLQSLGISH
# T3: Human CD39-L2 (human, UniProt O75354 61-484, limits assumed)
# T3 construct: Recombinant protein coated on ELISA plates; also called NTPDase6; ENTPD6
# T3 sequence: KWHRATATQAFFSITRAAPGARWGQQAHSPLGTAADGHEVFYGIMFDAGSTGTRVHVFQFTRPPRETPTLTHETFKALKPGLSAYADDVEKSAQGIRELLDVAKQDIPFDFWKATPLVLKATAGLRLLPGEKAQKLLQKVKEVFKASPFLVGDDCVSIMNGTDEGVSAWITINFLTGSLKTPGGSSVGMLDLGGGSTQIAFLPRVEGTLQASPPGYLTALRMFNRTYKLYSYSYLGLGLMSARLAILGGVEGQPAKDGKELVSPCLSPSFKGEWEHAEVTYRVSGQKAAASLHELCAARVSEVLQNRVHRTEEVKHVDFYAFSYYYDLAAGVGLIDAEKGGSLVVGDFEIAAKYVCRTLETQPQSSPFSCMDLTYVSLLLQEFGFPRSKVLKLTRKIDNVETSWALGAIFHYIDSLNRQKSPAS
# T4: Human CD39-L3 (human, UniProt O75355 44-485, limits assumed)
# T4 construct: Recombinant protein coated on ELISA plates; also called NTPDase3; ENTPD3
# T4 sequence: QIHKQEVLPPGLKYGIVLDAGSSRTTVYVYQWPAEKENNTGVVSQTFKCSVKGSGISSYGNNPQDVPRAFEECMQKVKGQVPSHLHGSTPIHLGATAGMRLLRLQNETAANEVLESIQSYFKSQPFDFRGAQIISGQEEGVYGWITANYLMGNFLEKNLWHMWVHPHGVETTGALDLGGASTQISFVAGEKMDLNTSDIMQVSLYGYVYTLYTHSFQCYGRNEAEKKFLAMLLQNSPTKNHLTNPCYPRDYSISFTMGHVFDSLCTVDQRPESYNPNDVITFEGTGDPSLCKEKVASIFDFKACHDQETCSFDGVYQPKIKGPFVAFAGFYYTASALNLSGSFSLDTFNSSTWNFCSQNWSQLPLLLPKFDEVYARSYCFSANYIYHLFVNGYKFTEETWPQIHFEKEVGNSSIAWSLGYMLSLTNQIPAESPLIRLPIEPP
# B1: mAb3 (antibody, human IgG1, V domains shown)
# VH: QVQLVQSGSELKKPGASVKVSCKASGYTFTHYGMNWVRQAPGKGLKWMGWINTYTGEPTYADDFKGRFVFSLDTSVSTAYLQISSLKAEDTAVYYCARRRYEGNYVFYYFDYWGQGTTVTVSS
# VL: DIQMTQSPSSLSASVGDRVTITCRASENIYSYFSWYQQKPGKAPKLLIYTAKTLAEGVPSRFSGSGSGTDFTLTISSLQPEDFATYYCQHHYVTPYTFGGGTKVEIK
# notes: Produced as Fc silent recombinant human IgG1 with heavy chain N297Q (Kabat EU numbering) and huCk constant domain; also called anti-CD39 antibody mAb3
# B2: mAb1 (antibody, human IgG1, V domains shown)
# VH: B1 VH with K43Q, K46E
# VL: B1 VL
# notes: Produced as Fc silent recombinant human IgG1 with heavy chain N297Q (Kabat EU numbering) and huCk constant domain; also called anti-CD39 antibody mAb1
# B3: mAb7 (antibody, human IgG1, V domains shown)
# VH: B1 VH with V2I, T74A
# VL: B1 VL with I48V
# notes: Produced as Fc silent recombinant human IgG1 with heavy chain N297Q (Kabat EU numbering) and huCk constant domain; also called anti-CD39 antibody mAb7
# B4: mAb2 (antibody, human IgG1, V domains shown)
# VH: B1 VH with K43Q
# VL: B1 VL
# notes: Produced as Fc silent recombinant human IgG1 with heavy chain N297Q (Kabat EU numbering) and huCk constant domain; also called anti-CD39 antibody mAb2
# B5: mAb6 (antibody, human IgG1, V domains shown)
# VH: B1 VH
# VL: B1 VL with I48V
# notes: Produced as Fc silent recombinant human IgG1 with heavy chain N297Q (Kabat EU numbering) and huCk constant domain; also called anti-CD39 antibody mAb6
# B6: mAb5 (antibody, human IgG1, V domains shown)
# VH: B1 VH with K43Q
# VL: B1 VL with I48V
# notes: Produced as Fc silent recombinant human IgG1 with heavy chain N297Q (Kabat EU numbering) and huCk constant domain; also called anti-CD39 antibody mAb5
# B7: mAb4 (antibody, human IgG1, V domains shown)
# VH: B1 VH with V2I, T74A
# VL: B1 VL
# notes: Produced as Fc silent recombinant human IgG1 with heavy chain N297Q (Kabat EU numbering) and huCk constant domain; also called anti-CD39 antibody mAb4
# Target: T1, human CD39 endogenously expressed on …
# Assay: cell-based or functional assay
row,"inhibition of CD39 enzymatic activity (AMP generated by Ramos cells, Maldi TOF) [%]",Binder
1,≥ 90,B1
2,≥ 90,B2
3,≥ 90,B3
4,≥ 90,B4
5,≥ 90,B5
6,≥ 90,B6
7,≥ 90,B7

# Target: T2, Human CD39-L4
# Assay: ELISA, recombinant isoform coated, dose range of antibody
# Procedure: (§1) Antibodies were tested for binding to recombinant human CD39 isoforms (Rec-huCD39 isoforms). The CD39 isoforms having amino acid sequences shown in the table below were coated in 96-well plate in PBS 1× at 500 ng/ml or 1 μg/ml at 4° C. overnight. Wells were washed in TBS Tween 20, and further saturated 2H at RT in TBS Blocking buffer (Thermo Fisher Scientific Inc.). Dose range concentration of primary antibody was incubated in TBS blocking buffer for 2 h at RT. Wells were washed in TBS Tween 20. […] Optical density was measured on Enspire at OD=450.
row,binding result,Binder
1,no binding,B1
2,no binding,B2
3,no binding,B3
4,no binding,B4
5,no binding,B5
6,no binding,B6
7,no binding,B7

# Target: T3, Human CD39-L2
# Assay: as above
# Procedure: as §1
row,binding result,Binder
1,no binding,B1
2,no binding,B2
3,no binding,B3
4,no binding,B4
5,no binding,B5
6,no binding,B6
7,no binding,B7

# Target: T4, Human CD39-L3
# Assay: as above
# Procedure: as §1
row,binding result,Binder
1,no binding,B1
2,no binding,B2
3,no binding,B3
4,no binding,B4
5,no binding,B5
6,no binding,B6
7,no binding,B7
